T1: gp130/CNTF-Rα/CNTF ternary complex (human, UniProt P26441 1-200; P40189 23-619)
T1 chain 1: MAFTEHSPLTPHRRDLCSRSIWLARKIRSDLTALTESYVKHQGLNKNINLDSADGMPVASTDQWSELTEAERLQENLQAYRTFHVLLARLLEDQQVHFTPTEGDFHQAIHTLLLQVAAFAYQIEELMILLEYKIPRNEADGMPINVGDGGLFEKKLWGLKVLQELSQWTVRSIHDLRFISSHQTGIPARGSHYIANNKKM
T1 chain 2: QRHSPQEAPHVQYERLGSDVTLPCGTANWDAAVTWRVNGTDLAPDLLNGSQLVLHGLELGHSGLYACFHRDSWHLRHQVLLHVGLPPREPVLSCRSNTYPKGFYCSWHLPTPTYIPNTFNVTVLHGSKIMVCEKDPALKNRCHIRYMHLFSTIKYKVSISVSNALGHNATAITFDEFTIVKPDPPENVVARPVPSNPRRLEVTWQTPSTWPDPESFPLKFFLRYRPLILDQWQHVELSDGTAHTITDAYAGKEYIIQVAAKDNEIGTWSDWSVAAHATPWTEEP
T1 chain 3: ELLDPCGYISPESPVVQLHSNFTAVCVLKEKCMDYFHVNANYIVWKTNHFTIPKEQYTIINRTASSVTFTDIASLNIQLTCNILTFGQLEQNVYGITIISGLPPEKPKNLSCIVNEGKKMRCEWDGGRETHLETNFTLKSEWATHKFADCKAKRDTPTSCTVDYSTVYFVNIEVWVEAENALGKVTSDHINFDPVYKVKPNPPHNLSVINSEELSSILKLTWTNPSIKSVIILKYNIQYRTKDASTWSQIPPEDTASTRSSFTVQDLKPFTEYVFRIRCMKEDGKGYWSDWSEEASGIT

B1: Leukemia Inhibitory Factor Receptor LIF-R (D1-D5) (domain or fragment, human)
chain: DLKCVTNNLQVWNCSWKAPSGTGRGTDYEVCIENRSRSCYQLEKTSIKIPALSHGDYEITINSLHDFGSSTSKFTLNEQNVSLIPDTPEILNLSADFSTSTLYLKWNDRGSVFPHRSNVIWEIKVLRKESMELVKLVTHNTTLNGKDTLHHWSWASDMPLECAIHFVEIRCYIDNLHFSGLEEWSDWSPVKNISWIPDSQTKVFPQDKVILVGSDITFCCVSQEKVLSALIGHTNCPLIHLDGENVAIKIRNISVSASSGTNVVFTTEDNIFGTVIFAGYPPDTPQQLNCETHDLKEIICSWNPGRVTALVGPRATSYTLVESFSGKYVRLKRAEAPTNESYQLLFQMLPNQEIYNFTLNAHNPLGRSQSTILVNITEKVYPHTPTSFKVKDINSTAVKLSWHLPGNFAKINFLCEIEIKKSNSVQEQRNVTIKGVENSSYLVALDKLNPYTLYTFRIRCSTETFWKWSKWSNKKQHLTTEAS

Legend:
[1] = target: B1; test: ITC
[2] = target: T1, gp130/CNTF-Rα/CNTF ternary complex; test: ITC

binding result [1] | stoichiometry N [2] | Binder
binds |  | Ciliary Neurotrophic Factor (CNTF) (ligand, human, UniProt P26441 1-200, looked up) MAFTEHSPLTPHRRDLCSRSIWLARKIRSDLTALTESYVKHQGLNKNINLDSADGMPVASTDQWSELTEAERLQENLQAYRTFHVLLARLLEDQQVHFTPTEGDFHQAIHTLLLQVAAFAYQIEELMILLEYKIPRNEADGMPINVGDGGLFEKKLWGLKVLQELSQWTVRSIHDLRFISSHQTGIPARGSHYIANNKKM
 | 1 | B1
